Measured values: publication PMC6200926 (The Journal of Biological Chemistry, 2018)

Tests used:
[1] = target: T1, A/Vietnam/1203/2004 HA globular head (Asp-55–Glu-271) (Influenza A virus A/Vietnam/1203/2004 …, UniProt Q5EP31, strain); experiment: cell-based or functional assay
[2] = target: A/Turkey/65596/2006 HA globular head (Asp-55–Glu-271) (Influenza A virus A/Turkey/65596/2006 …, strain); experiment: cell-based or functional assay
[3] = target: T2, A/Thailand/1(KAN-1)/2004 HA globular head (Asp-55–Glu-271) (Influenza A virus …, strain); experiment: cell-based or functional assay
[4] = target: T1, A/Vietnam/1203/2004 HA globular head …; experiment: SPR; settings: both partners purified
[5] = target: T2, A/Thailand/1(KAN-1)/2004 HA globular …; experiment: SPR; settings: both partners purified
[6] = target: T3, A/Beijing/01/2003 HA globular head (Asp-55–Glu-271) (Influenza A virus A/Beijing/01/2003 …, UniProt A5YTS6, strain); experiment: cell-based or functional assay
[7] = target: T4, A/Anhui/1/2005 HA globular head (Asp-55–Glu-271) (Influenza A virus A/Anhui/1/2005 (H5N1), UniProt Q1WDM0, strain); experiment: cell-based or functional assay
[8] = target: T3, A/Beijing/01/2003 HA globular head …; experiment: SPR; settings: both partners purified
[9] = target: T4, A/Anhui/1/2005 HA globular head …; experiment: SPR; settings: both partners purified

B1: FLD21.140 (antibody, V domains shown)
VH: QVQLQESGPGLVKPSQTLSLTCTVSGGSISSGTYYWSWIRHHPGKGLEWIGYIYHSGSAYYNPSLESRVTMSVDTSKNQFSLKLSSVTAADTAIYYCARAENLLSPYLAEGFDPWGQGTLVTVSS
VL: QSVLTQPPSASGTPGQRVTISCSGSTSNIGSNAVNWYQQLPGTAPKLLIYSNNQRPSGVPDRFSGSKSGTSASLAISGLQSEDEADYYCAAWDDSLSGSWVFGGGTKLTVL
In the case of B1, the “neutralisation IC50, pseudovirus with the whole HA of this strain” value (“neutralisation IC50, pseudovirus” for short) [1] is reported as 1 ng/mL, the “neutralisation IC50, pseudovirus” value [2] is reported as 1 ng/mL and the “neutralisation IC50, pseudovirus” value [3] is reported as 8 ng/mL.

B2: FLD21.140 Fab (Fab, V domains shown)
VH: B1 VH
VL: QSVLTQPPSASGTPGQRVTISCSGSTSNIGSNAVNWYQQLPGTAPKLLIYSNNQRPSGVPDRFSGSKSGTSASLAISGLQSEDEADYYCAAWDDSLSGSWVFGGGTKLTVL
B2 showed a Kd [4] of 0.702 nM and a Kd [5] of 1 nM.

B3: AVFluIgG03 (antibody, V domains shown)
VH: EVQLLESGGGLVQPGGSLRVSCTNSGFTFSNYAMSWVRQAPGKGLEWVSAISGNGGSGTYYADSVKGRFTISRDNSKNTMYLQMNSLRAEDTAVYYCVRDDSYDGGGHYGLHNWFDSWGQGTLVTVSS
VL: SVLTQPPSVSGAPGQRVTISCTGSSSNIGAGYDVHWYQQLPGTAPKLLIYGNSNRPSGVPDRFSGSKSGTSASLAITGLQAEDEADYYCQSYDSSVVVFGGGTKLEIK
With B3 the “neutralisation IC50, pseudovirus” value [6] was 3 ng/mL and the “neutralisation IC50, pseudovirus” value [7] was 2 ng/mL.

B4: AVFluIgG03 Fab (Fab, V domains shown)
VH: B3 VH
VL: B3 VL
notes: source: cut from the purified IgG with Lys-C
In the case of B4, the Kd [8] is reported as 25 nM and the Kd [9] is reported as 12.6 nM.
